{"source": "paper PMC3468084", "binders": {"B1": {"name": "dT30 (ssDNA)", "DNA": "TTTTTTTTTTTTTTTTTTTTTTTTTTTTTT"}}, "key": {"[1]": {"target": "T1, KpDnaB helicase (Klebsiella pneumoniae, UniProt A6TGW0 1-471)", "assay": "EMSA; 16.7 uM galangin; apparent Kd; 20 mM HEPES pH 7.0, 100 mM NaCl, 25 C, 30 min, 1.7 nM dT30, no Mg2+ or nucleotide stated; native 8% PAGE in TBE at 4 C"}, "[2]": {"target": "T1, KpDnaB helicase", "assay": "EMSA; 16.7 uM kaempferol; apparent Kd; 20 mM HEPES pH 7.0, 100 mM NaCl, 25 C, 30 min, 1.7 nM dT30, no Mg2+ or nucleotide stated; native 8% PAGE in TBE at 4 C"}, "[3]": {"target": "T1, KpDnaB helicase", "assay": "EMSA; no flavonol; apparent Kd; 20 mM HEPES pH 7.0, 100 mM NaCl, 25 C, 30 min, 1.7 nM dT30, no Mg2+ or nucleotide stated; native 8% PAGE in TBE at 4 C"}, "[4]": {"target": "T1, KpDnaB helicase", "assay": "EMSA; 16.7 uM quercetin; apparent Kd; 20 mM HEPES pH 7.0, 100 mM NaCl, 25 C, 30 min, 1.7 nM dT30, no Mg2+ or nucleotide stated; native 8% PAGE in TBE at 4 C"}, "[5]": {"target": "T1, KpDnaB helicase", "assay": "EMSA; 16.7 uM myricetin; apparent Kd; 20 mM HEPES pH 7.0, 100 mM NaCl, 25 C, 30 min, 1.7 nM dT30, no Mg2+ or nucleotide stated; native 8% PAGE in TBE at 4 C"}}}
{"binder": "B1", "values": [{"measurement": "Kd", "setting": "[1]", "result": "1030 ± 60", "unit": "nM"}, {"measurement": "Kd", "setting": "[2]", "result": "1100 ± 50", "unit": "nM"}, {"measurement": "Kd", "setting": "[3]", "result": "970 ± 70", "unit": "nM"}, {"measurement": "Kd", "setting": "[4]", "result": "1030 ± 70", "unit": "nM"}, {"measurement": "Kd", "setting": "[5]", "result": "1110 ± 50", "unit": "nM"}]}
